Measurements reported in the supplement of paper PMC9112550, “Optimization of the antimicrobial peptide Bac7 by deep mutational scanning” (BMC Biology, 2022).

Test system: Escherichia coli TOP10
Assay: shrunken log2 fold change of peptide-encoding DNA abundance (4.5 h post-induction vs induction); higher = less antimicrobial activity (less host growth inhibition)
Details: time post-induction: 4.5 h; library: site-saturation at positions 5, 18, 19, 20
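Note: peptides expressed intracellularly from a pBAD plasmid library in pooled LB shake-flask culture, induced with 0.3% L-arabinose, DNA abundance read by NGS, three biological replicates, DESeq2 with apeglm shrinkage.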

Sequence	shrunken log2 fold change
RRIRQRPPRLPRPRPRPTGSPRP	-0.0708
RRIRARPPRLPRPRPRPKREPRP	0.422
RRIRWRPPRLPRPRPRPPDGPRP	0.784
RRIRARPPRLPRPRPRPYFNPRP	-0.71
RRIRGRPPRLPRPRPRPQGPPRP	0.224
RRIRTRPPRLPRPRPRPIAPPRP	-0.0608
RRIRSRPPRLPRPRPRPDFNPRP	-0.411
RRIRTRPPRLPRPRPRPIIMPRP	-0.305
RRIRRRPPRLPRPRPRPIGAPRP	0.435
RRIRMRPPRLPRPRPRPELRPRP	2.02
RRIRYRPPRLPRPRPRPCAEPRP	-0.835
RRIRHRPPRLPRPRPRPQCEPRP	-0.122
RRIRTRPPRLPRPRPRPAAIPRP	0.163
RRIRARPPRLPRPRPRPDTGPRP	-0.0932
RRIRKRPPRLPRPRPRPSTIPRP	-0.0803
RRIRERPPRLPRPRPRPPFDPRP	-0.0468
RRIRDRPPRLPRPRPRPRLKPRP	0.411
RRIRLRPPRLPRPRPRPRGHPRP	0.078
RRIRHRPPRLPRPRPRPWSMPRP	-0.293
RRIRKRPPRLPRPRPRPEYLPRP	-0.0659
RRIRFRPPRLPRPRPRPTYNPRP	-0.767
RRIRFRPPRLPRPRPRPPPKPRP	1.58
RRIRTRPPRLPRPRPRPPQGPRP	0.235
RRIRRRPPRLPRPRPRPSEKPRP	0.51
RRIRVRPPRLPRPRPRPHWNPRP	-0.343

Sequence	shrunken log2 fold change
RRIRTRPPRLPRPRPRPTKIPRP	-0.169
RRIRARPPRLPRPRPRPMMSPRP	0.186
RRIRWRPPRLPRPRPRPQKAPRP	0.123
RRIRWRPPRLPRPRPRPHVYPRP	-0.132
RRIRIRPPRLPRPRPRPEYRPRP	-1.12
RRIRVRPPRLPRPRPRPLLAPRP	0.343
RRIRRRPPRLPRPRPRPPDGPRP	0.326
RRIRWRPPRLPRPRPRPCWPPRP	0.427
RRIRWRPPRLPRPRPRPFQMPRP	-0.692
RRIRWRPPRLPRPRPRPNTMPRP	-0.301
RRIRMRPPRLPRPRPRPHHDPRP	0.0126
RRIRCRPPRLPRPRPRPESSPRP	-0.16
RRIRKRPPRLPRPRPRPNAAPRP	0.986
RRIRERPPRLPRPRPRPDIYPRP	0.137
RRIRHRPPRLPRPRPRPINIPRP	-1.01
RRIRIRPPRLPRPRPRPLEMPRP	-0.373
RRIRGRPPRLPRPRPRPNEQPRP	-0.0722
RRIRWRPPRLPRPRPRPWPHPRP	0.204
RRIRDRPPRLPRPRPRPAPKPRP	0.0948
RRIRHRPPRLPRPRPRPTWVPRP	0.078
RRIRERPPRLPRPRPRPKQMPRP	-0.19
RRIRMRPPRLPRPRPRPFFVPRP	-0.0457
RRIRVRPPRLPRPRPRPPTDPRP	0.116
RRIRTRPPRLPRPRPRPAAHPRP	0.199
RRIRGRPPRLPRPRPRPCRNPRP	0.0316

Sequence	shrunken log2 fold change
RRIRGRPPRLPRPRPRPGGAPRP	1
RRIRHRPPRLPRPRPRPFFIPRP	-0.393
RRIRFRPPRLPRPRPRPIQWPRP	0.0986
RRIRERPPRLPRPRPRPQIYPRP	-0.23
RRIRLRPPRLPRPRPRPVKWPRP	0.215
RRIRQRPPRLPRPRPRPYCCPRP	-0.781
RRIRMRPPRLPRPRPRPGVWPRP	0.723
RRIRWRPPRLPRPRPRPNQVPRP	0.0796
RRIRRRPPRLPRPRPRPTHSPRP	0.775
RRIRTRPPRLPRPRPRPDIFPRP	-0.234
RRIRRRPPRLPRPRPRPGQFPRP	0.0178
RRIRHRPPRLPRPRPRPLYCPRP	-0.327
RRIRWRPPRLPRPRPRPWDDPRP	-0.236
RRIRPRPPRLPRPRPRPYDMPRP	-0.748
RRIRERPPRLPRPRPRPDETPRP	-0.015
RRIRARPPRLPRPRPRPTHIPRP	0.36
RRIRMRPPRLPRPRPRPRNWPRP	0.788
RRIRARPPRLPRPRPRPLLRPRP	0.103
RRIRARPPRLPRPRPRPMSAPRP	0.361
RRIRPRPPRLPRPRPRPMSDPRP	-0.195
RRIRTRPPRLPRPRPRPITEPRP	-0.183
RRIRMRPPRLPRPRPRPDPTPRP	0.0984
RRIRNRPPRLPRPRPRPCEQPRP	-0.00776
RRIRRRPPRLPRPRPRPLLRPRP	0.44
RRIRWRPPRLPRPRPRPRYCPRP	-0.139

Sequence	shrunken log2 fold change
RRIRDRPPRLPRPRPRPFLPPRP	-0.358
RRIRSRPPRLPRPRPRPLDCPRP	-0.212
RRIRIRPPRLPRPRPRPLFVPRP	-0.642
RRIRIRPPRLPRPRPRPHQQPRP	-0.132
RRIRARPPRLPRPRPRPHYFPRP	0.0061
RRIRYRPPRLPRPRPRPTWHPRP	-0.349
RRIRTRPPRLPRPRPRPWEPPRP	-0.0542
RRIRHRPPRLPRPRPRPQESPRP	0.00355
RRIRSRPPRLPRPRPRPWINPRP	-0.205
RRIRDRPPRLPRPRPRPKSHPRP	-0.204
RRIRCRPPRLPRPRPRPAVIPRP	-0.383
RRIRARPPRLPRPRPRPDVDPRP	1.1
RRIRTRPPRLPRPRPRPQKQPRP	0.166
RRIRMRPPRLPRPRPRPNASPRP	0.0546
RRIRERPPRLPRPRPRPADKPRP	-0.187
RRIRKRPPRLPRPRPRPQCMPRP	0.0247
RRIRHRPPRLPRPRPRPWHLPRP	-1.9
RRIRHRPPRLPRPRPRPWAEPRP	-0.119
RRIRDRPPRLPRPRPRPPTSPRP	0.00594
RRIRNRPPRLPRPRPRPPVIPRP	-0.00994
RRIRARPPRLPRPRPRPCDEPRP	0.085
RRIRMRPPRLPRPRPRPSTNPRP	0.0712
RRIRKRPPRLPRPRPRPTWTPRP	0.0915
RRIRGRPPRLPRPRPRPCYSPRP	-0.0391
RRIRNRPPRLPRPRPRPKKWPRP	-0.00407

Sequence	shrunken log2 fold change
RRIRLRPPRLPRPRPRPWSMPRP	0.202
RRIRKRPPRLPRPRPRPTKRPRP	0.697
RRIRSRPPRLPRPRPRPMVKPRP	-0.0162
RRIRTRPPRLPRPRPRPEGDPRP	0.0354
RRIRNRPPRLPRPRPRPLWTPRP	-0.247
RRIRYRPPRLPRPRPRPPHDPRP	-0.383
RRIRCRPPRLPRPRPRPGTLPRP	-0.237
RRIRVRPPRLPRPRPRPSQVPRP	-0.215
RRIRGRPPRLPRPRPRPNAAPRP	2.21
RRIRGRPPRLPRPRPRPVKYPRP	0.235
RRIRDRPPRLPRPRPRPKVKPRP	-0.337
RRIRSRPPRLPRPRPRPSPIPRP	-0.467
RRIRLRPPRLPRPRPRPGDWPRP	0.618
RRIRLRPPRLPRPRPRPRHKPRP	0.258
RRIRIRPPRLPRPRPRPNCGPRP	0.0437
RRIRQRPPRLPRPRPRPGMKPRP	-0.0822
RRIRPRPPRLPRPRPRPMSWPRP	0.245
RRIRIRPPRLPRPRPRPGRSPRP	0.0764
RRIRERPPRLPRPRPRPYKAPRP	-0.123
RRIRKRPPRLPRPRPRPAQAPRP	0.281
RRIRMRPPRLPRPRPRPHGCPRP	0.669
RRIRFRPPRLPRPRPRPSASPRP	0.0552
RRIRRRPPRLPRPRPRPMIKPRP	0.0444
RRIRQRPPRLPRPRPRPPSGPRP	0.352
RRIRQRPPRLPRPRPRPRKNPRP	0.309

Sequence	shrunken log2 fold change
RRIRFRPPRLPRPRPRPPNEPRP	0.0211
RRIRYRPPRLPRPRPRPVMTPRP	-0.09
RRIRNRPPRLPRPRPRPNAKPRP	-0.109
RRIRLRPPRLPRPRPRPKYQPRP	-0.141
RRIRARPPRLPRPRPRPGPLPRP	0.429
RRIRDRPPRLPRPRPRPQPCPRP	-0.0957
RRIRARPPRLPRPRPRPFSTPRP	-0.572
RRIRDRPPRLPRPRPRPMSAPRP	-0.177
RRIRTRPPRLPRPRPRPKFEPRP	0.0721
RRIRDRPPRLPRPRPRPGPLPRP	0.0434
RRIRSRPPRLPRPRPRPQRVPRP	-0.00684
RRIRWRPPRLPRPRPRPCWLPRP	-0.119
RRIRLRPPRLPRPRPRPTCRPRP	0.187
RRIRQRPPRLPRPRPRPPIHPRP	-0.0767
RRIRERPPRLPRPRPRPTYWPRP	-0.219
RRIRNRPPRLPRPRPRPPGMPRP	-0.138
RRIRRRPPRLPRPRPRPDFEPRP	0.552
RRIRSRPPRLPRPRPRPFPCPRP	-0.124
RRIRVRPPRLPRPRPRPLDSPRP	-0.19
RRIRQRPPRLPRPRPRPTLSPRP	0.322
RRIRFRPPRLPRPRPRPDDNPRP	-0.137
RRIRTRPPRLPRPRPRPWIRPRP	-0.0303
RRIRQRPPRLPRPRPRPIYFPRP	-0.115
RRIRARPPRLPRPRPRPEPCPRP	0.126
RRIRMRPPRLPRPRPRPMCAPRP	1.57
